Laboratory results: patent US20190330320A1 (H LUNDBECK A S, published 2019)

Legend:
[1] = target: T1, pathological hyperphosphorylated tau from human Alzheimer's disease brain (AD-P3 antigens) (human, UniProt P10636 2-758, hyperphosphorylated; phosphoserine at 396); experiment: binding to tau isolated from diseased and healthy brains
T1 construct: Brain-derived material with a mixture of tau isoforms and aggregates; Also used for tangles stained in AD brain sections and for the S1, S1p and P3 fractions and lysates of AD brain; also called P3 tau isolated from human AD brains
T1 sequence (P10636 other isoform, or with tags, fused parts or gaps limits assumed): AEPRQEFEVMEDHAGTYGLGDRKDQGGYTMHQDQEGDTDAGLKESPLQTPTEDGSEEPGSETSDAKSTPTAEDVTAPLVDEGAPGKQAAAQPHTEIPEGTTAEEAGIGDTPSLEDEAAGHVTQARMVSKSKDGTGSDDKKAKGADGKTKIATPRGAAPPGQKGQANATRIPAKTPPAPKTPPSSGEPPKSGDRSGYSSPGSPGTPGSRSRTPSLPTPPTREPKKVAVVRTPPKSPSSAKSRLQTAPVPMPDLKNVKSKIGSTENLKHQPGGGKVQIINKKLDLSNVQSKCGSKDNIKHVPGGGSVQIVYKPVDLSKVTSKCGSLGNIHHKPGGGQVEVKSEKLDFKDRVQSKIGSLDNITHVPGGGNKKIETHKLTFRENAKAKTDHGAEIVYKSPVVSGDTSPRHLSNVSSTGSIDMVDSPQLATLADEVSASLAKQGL

[2] = target: T2, P-S396 Tau in Alzheimer brain extracts (human, UniProt P10636 2-758, phosphoserine at 396); experiment: immunodepletion of AD brain extract, P-S396 western blot
T2 construct: Brain-derived; Defined by the western blot signal for P-S396; also called S-P396
T2 sequence (P10636 other isoform, or with tags, fused parts or gaps limits assumed): as above
Method: FIG. 16. Quantification of P-S396 Tau western blot signal after immunodepleting Alzheimers diseased brain extracts using different amounts of hC10-2 variants N32S, N32Q, N32S_A101T, N32Q_ A101T, N32Q_D55E and N32S_ D55E.
Samples were boiled in 1×LDS loading buffer and 100 mM DTT. A volume corresponding to 3 μl of extracts were loaded on a 4-12% Bis-Tris NuPAGE Gel (LifeTech Novex). After electrophoresis, the proteins were blotted over to a ImmobilonFL PVDF membrane ([…], IPFL10100, Millipore). The membrane was blocked with SEA blocking buffer (Prod#37527, Thermo). Tau and P-tau levels were assessed in the samples using Tau5 (Abcam ab80579, 1:2000) mouse C10-2 (1 μg/ml), P-5199/202 (Invitrogen 44768 G, 1:1000), P-5422 (Abcam ab79415, 1:750), human IPN (1 μg/ml). Gapdh and actin were used as loading controls (Abcam ab9484, 1:2000, Sigma A5441, 1:20000). Secondary fluorophore conjugated IgG antibodies was used (IRDye 800CW Goat anti-Human, IRDye 800CW, Goat anti-rabbit, IRDye 680 Goat anti-mouse, LI-COR biosciences) and the signal was quantified using Odyssey CLx and Image studio software (LI-COR biosciences). Quantification of individual bands as well as signal in whole lanes was done and from this sigmoidal dose-response curves were plotted and when possible max effect and EC50 values were estimated.

[3] = target: T3, Antibody C10-2 (humanized C10-2); experiment: fluid phase peptide inhibition of antibody binding to peptide-coated MSD wells
T3 construct: also called human C10-2; hC10-2
Method: (§1) FIG. 2. Peptide inhibition assay illustrating apparent affinity hC10-2 and related C10-2 variants.
(§2) Plates were washed 5 times in (PBS, 0.1% BSA, 0.1% NP40) and anti-human total Tau (MSD sulfo tagged 1:50) was added to detect bound antibody which reflect non-inhibited free antibody.

[4] = target: T4, Antibody N32S (hC10-2_N32S); experiment: as above
T4 construct: Variant of humanized C10-2 with light chain N32S; also called hC10-2_N325; C10-2_N325
Method: as §1, §2

[5] = target: Antibody N32S, A101T (hC10-2_N32S_A101T); experiment: as above
Method: as §1, §2

B1: IPN002 (antibody, V domains shown)
VH: EVHLVESGGALVKPGGSLKLSCAASGFSFSKYGMSWVRQTPDKRLEWVATISSSGSRTYYPDSVKGQFTISRDNAKNTLYLQMSSLKSEDTAMYYCSISWDGAMDYWGQGTSVTVSS
VL: DVLMTQTPLSLPVSLGDQASISCKSSQSIVHSNGNTYLEWYLQKPGQSPKLLVYKVSNRFSGVPDRFSGSGSGTDFTLKISRVEAEDLGTYYCFQGSLVPWAFGGGTKLEIK
B1 was tested, and the “AD/ctrl (binding to tau from AD brain over tau from healthy control brain)” value [1] was 3 ratio.

B2: HJ8.5 (antibody, V domains shown)
VH: EVKVEESGGGLVQPGGSMKLSCVVSGFTFSNYWVNWVRQSPEKGLEWVAQIRLKSDNYATHYEESVKGRFTISRDDSKSSVYLQMNNLRAEDSGIYYCTNWEDYWGQGTTLTVSS
VL: DIVLTQSPASLAVSLGQRATISCRASQSVSTSRYSYIHWYQQKPGQPPKLLIKYASNLESGVPARFSGSGSGTDFTLNIHPLEEEDAATYYCHHSWEIPLTFGAGTKLELK
For B2, the “AD/ctrl (binding to tau from AD brain over tau from healthy control brain)” value [1] was 3 ratio.

B3: Antibody N32Q (hC10-2_N32Q) (antibody, human IgG1, kappa, V domains shown)
VH: QVQLVQSGAEVVKPGASVKISCKASGYTFTDRTIHWVRQAPGQGLEWIGYIYPGDGSTKYSQKFQGRATLTADTSASTAYMELSSLRSEDTAVYYCARRGAMDYWGQGTSVTVSS
VL: DVQMTQSPSSLSASVGDRVTMTCQASQDTSIQLNWFQQKPGKAPKLLIYGASNLETGVPSRFSGSRSGTDFTLTISSLQPEDMATYYCLQHTYLPFTFGSGTKLEIKR
With B3 the “percent decrease in the S-P396 signal at 75 ng antibody” value (“percent decrease in the S-P396 signal” below) [2] was ≥ 28%.

B4: Antibody N32Q, A101T (hC10-2_N32Q_A101T) (antibody, human IgG1, kappa, V domains shown)
VH: QVQLVQSGAEVVKPGASVKISCKASGYTFTDRTIHWVRQAPGQGLEWIGYIYPGDGSTKYSQKFQGRATLTADTSASTAYMELSSLRSEDTAVYYCARRGTMDYWGQGTSVTVSS
VL: DVQMTQSPSSLSASVGDRVTMTCQASQDTSIQLNWFQQKPGKAPKLLIYGASNLETGVPSRFSGSRSGTDFTLTISSLQPEDMATYYCLQHTYLPFTFGSGTKLEIKR
With B4 the “percent decrease in the S-P396 signal” value [2] was ≥ 28%.

B5: hC10-2 variant N32Q_D55E (antibody, human IgG1, kappa, V domains shown)
VH: QVQLVQSGAEVVKPGASVKISCKASGYTFTDRTIHWVRQAPGQGLEWIGYIYPGEGSTKYSQKFQGRATLTADTSASTAYMELSSLRSEDTAVYYCARRGAMDYWGQGTSVTVSS
VL: DVQMTQSPSSLSASVGDRVTMTCQASQDTSIQLNWFQQKPGKAPKLLIYGASNLETGVPSRFSGSRSGTDFTLTISSLQPEDMATYYCLQHTYLPFTFGSGTKLEIKR
notes: Chains are put together from the variant names: light chain N32Q and heavy chain D55E
For B5, the “percent decrease in the S-P396 signal” value [2] was 16%.

B6: hC10-2 variant N32S_D55E (antibody, human IgG1, kappa, V domains shown)
VH: QVQLVQSGAEVVKPGASVKISCKASGYTFTDRTIHWVRQAPGQGLEWIGYIYPGEGSTKYSQKFQGRATLTADTSASTAYMELSSLRSEDTAVYYCARRGAMDYWGQGTSVTVSS
VL: DVQMTQSPSSLSASVGDRVTMTCQASQDTSISLNWFQQKPGKAPKLLIYGASNLETGVPSRFSGSRSGTDFTLTISSLQPEDMATYYCLQHTYLPFTFGSGTKLEIKR
notes: Chains are put together from the variant names: light chain N32S and heavy chain D55E; also called C10-2_N32S D55E
B6 was tested, and the “percent decrease in the S-P396 signal” value [2] was ≥ 28%.

B7: Ptau (P396) 386-408 peptide (peptide)
peptide: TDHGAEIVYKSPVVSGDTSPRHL
modifications: phosphoserine at 396 (tau numbering)
Work on B7 yielded an IC50 [3] of 24 nM, an IC50 [4] of 50 nM and an IC50 [5] of 34 nM.
